Measurements reported in US20140154252A1 (EMERGENT PRODUCT DEVELOPMENT SEATTLE, published 2014).

B1: 2H7-sss-hIgG P238S/P331S-H1-2e12 VHVL (bispecific antibody)
chain: QIVLSQSPAILSASPGEKVTMTCRASSSVSYMHWYQQKPGSSPKPWIYAPSNLASGVPARFSGSGSGTSYSLTISRVEAEDAATYYCQQWSFNPPTFGAGTKLELKDGGGSGGGGSGGGGSSQAYLQQSGAESVRPGASVKMSCKASGYTFTSYNMHWVKQTPRQGLEWIGAIYPGNGDTSYNQKFKGKATLTVDKSSSTAYMQLSSLTSEDSAVYFCARVVYYSNSYWYFDVWGTGTTVTVSEPKSSDKTHTSPPSPAPELLGGSSVFLFPPKPKDTLMISRTPEVTCVVVDVSHEDPEVKFNWYVDGVEVHNAKTKPREEQYNSTYRVVSVLTVLHQDWLNGKEYKCKVSNKALPASIEKTISKAKGQPREPQVYTLPPSRDELTKNQVSLTCLVKGFYPSDIAVEWESNGQPENNYKTTPPVLDSDGSFFLYSKLTVDKSRWQQGNVFSCSVMHEALHNHYTQKSLSLSPGKNSQVQLKESGPGLVAPSQSLSITCTVSGFSLTGYGVNWVRQPPGKGLEWLGMIWGDGSTDYNSALKSRLSITKDNSKSQVFLKMNSLQTDDTARYYCARDGYSNFHYYVMDYWGQGTSVTVSSGGGGSGGGGSGGGGSGGGGSDIVLTQSPASLAVSLGQRATISCRASESVEYYVTSLMQWYQQKPGQPPKLLISAASNVESGVPARFSGSGSGTDFSLNIHPVEEDDIAMYFCQQSRKVPWTFGGGTKLEIKR
notes: Assembled from modules as m11; also called 2H7-sss-hIgG-H1-2e12 HL; TRU015-sss-IgG-H1-2e12 HL
B2: 2H7-sss-hIgG P238S/P331S-H2-2e12 VHVL (bispecific antibody)
chain: QIVLSQSPAILSASPGEKVTMTCRASSSVSYMHWYQQKPGSSPKPWIYAPSNLASGVPARFSGSGSGTSYSLTISRVEAEDAATYYCQQWSFNPPTFGAGTKLELKDGGGSGGGGSGGGGSSQAYLQQSGAESVRPGASVKMSCKASGYTFTSYNMHWVKQTPRQGLEWIGAIYPGNGDTSYNQKFKGKATLTVDKSSSTAYMQLSSLTSEDSAVYFCARVVYYSNSYWYFDVWGTGTTVTVSEPKSSDKTHTSPPSPAPELLGGSSVFLFPPKPKDTLMISRTPEVTCVVVDVSHEDPEVKFNWYVDGVEVHNAKTKPREEQYNSTYRVVSVLTVLHQDWLNGKEYKCKVSNKALPASIEKTISKAKGQPREPQVYTLPPSRDELTKNQVSLTCLVKGFYPSDIAVEWESNGQPENNYKTTPPVLDSDGSFFLYSKLTVDKSRWQQGNVFSCSVMHEALHNHYTQKSLSLSPGKGGGGSGNSQVQLKESGPGLVAPSQSLSITCTVSGFSLTGYGVNWVRQPPGKGLEWLGMIWGDGSTDYNSALKSRLSITKDNSKSQVFLKMNSLQTDDTARYYCARDGYSNFHYYVMDYWGQGTSVTVSSGGGGSGGGGSGGGGSGGGGSDIVLTQSPASLAVSLGQRATISCRASESVEYYVTSLMQWYQQKPGQPPKLLISAASNVESGVPARFSGSGSGTDFSLNIHPVEEDDIAMYFCQQSRKVPWTFGGGTKLEIKR
notes: Assembled from modules as m11; also called 2H7-sss-hIgG-H2-2e12 HL
B3: 2H7-sss-hIgG-L6-2e12 (H6 linker, 2e12 VL-VH) (bispecific antibody)
chain (part 1 of 2): QIVLSQSPAILSASPGEKVTMTCRASSSVSYMHWYQQKPGSSPKPWIYAPSNLASGVPARFSGSGSGTSYSLTISRVEAEDAATYYCQQWSFNPPTFGAGTKLELKDGGGSGGGGSGGGGSSQAYLQQSGAESVRPGASVKMSCKASGYTFTSYNMHWVKQTPRQGLEWIGAIYPGNGDTSYNQKFKGKATLTVDKSSSTAYMQLSSLTSEDSAVYFCARVVYYSNSYWYFDVWGTGTTVTVSEPKSSDKTHTSPPSP
chain (part 2 of 2): GGGGSGGGGSGGGGSGNSDIVLTQSPASLAVSLGQRATISCRASESVEYYVTSLMQWYQQKPGQPPKLLISAASNVESGVPARFSGSGSGTDFSLNIHPVEEDDIAMYFCQQSRKVPWTFGGGTKLEIKRGGGGSGGGGSGGGGSQVQLKESGPGLVAPSQSLSITCTVSGFSLTGYGVNWVRQPPGKGLEWLGMIWGDGSTDYNSALKSRLSITKDNSKSQVFLKMNSLQTDDTARYYCARDGYSNFHYYVMDYWGQGTSVTVSS
notes: Assembled from modules as m10; not shown: human IgG1 CH2-CH3
B4: 2H7-sss-hIgG-L3-2e12 (H3 linker, 2e12 VL-VH) (bispecific antibody)
chain (part 1 of 2): B3 chain (part 1 of 2)
chain (part 2 of 2): NYGGGGSGNSDIVLTQSPASLAVSLGQRATISCRASESVEYYVTSLMQWYQQKPGQPPKLLISAASNVESGVPARFSGSGSGTDFSLNIHPVEEDDIAMYFCQQSRKVPWTFGGGTKLEIKRGGGGSGGGGSGGGGSQVQLKESGPGLVAPSQSLSITCTVSGFSLTGYGVNWVRQPPGKGLEWLGMIWGDGSTDYNSALKSRLSITKDNSKSQVFLKMNSLQTDDTARYYCARDGYSNFHYYVMDYWGQGTSVTVSS
notes: as for B3
B5: 2H7-sss-hIgG-L2-2e12 (H2 linker, 2e12 VL-VH) (bispecific antibody)
chain (part 1 of 2): B3 chain (part 1 of 2)
chain (part 2 of 2): GGGGSGNSDIVLTQSPASLAVSLGQRATISCRASESVEYYVTSLMQWYQQKPGQPPKLLISAASNVESGVPARFSGSGSGTDFSLNIHPVEEDDIAMYFCQQSRKVPWTFGGGTKLEIKRGGGGSGGGGSGGGGSQVQLKESGPGLVAPSQSLSITCTVSGFSLTGYGVNWVRQPPGKGLEWLGMIWGDGSTDYNSALKSRLSITKDNSKSQVFLKMNSLQTDDTARYYCARDGYSNFHYYVMDYWGQGTSVTVSS
notes: as for B3
B6: 2H7-sss-hIgG-L1-2e12 (H1 linker, 2e12 VL-VH) (bispecific antibody)
chain (part 1 of 2): B3 chain (part 1 of 2)
chain (part 2 of 2): NSDIVLTQSPASLAVSLGQRATISCRASESVEYYVTSLMQWYQQKPGQPPKLLISAASNVESGVPARFSGSGSGTDFSLNIHPVEEDDIAMYFCQQSRKVPWTFGGGTKLEIKRGGGGSGGGGSGGGGSQVQLKESGPGLVAPSQSLSITCTVSGFSLTGYGVNWVRQPPGKGLEWLGMIWGDGSTDYNSALKSRLSITKDNSKSQVFLKMNSLQTDDTARYYCARDGYSNFHYYVMDYWGQGTSVTVSS
notes: as for B3
B7: 2H7-sss-hIgG-L4-2e12 (H4 linker, 2e12 VL-VH) (bispecific antibody)
chain (part 1 of 2): B3 chain (part 1 of 2)
chain (part 2 of 2): GGGGSGGGGSGNSDIVLTQSPASLAVSLGQRATISCRASESVEYYVTSLMQWYQQKPGQPPKLLISAASNVESGVPARFSGSGSGTDFSLNIHPVEEDDIAMYFCQQSRKVPWTFGGGTKLEIKRGGGGSGGGGSGGGGSQVQLKESGPGLVAPSQSLSITCTVSGFSLTGYGVNWVRQPPGKGLEWLGMIWGDGSTDYNSALKSRLSITKDNSKSQVFLKMNSLQTDDTARYYCARDGYSNFHYYVMDYWGQGTSVTVSS
notes: as for B3
B8: 2H7-sss-hIgG-L5-2e12 (H5 linker, 2e12 VL-VH) (bispecific antibody)
chain (part 1 of 2): B3 chain (part 1 of 2)
chain (part 2 of 2): NYGGGGSGGGGSGNSDIVLTQSPASLAVSLGQRATISCRASESVEYYVTSLMQWYQQKPGQPPKLLISAASNVESGVPARFSGSGSGTDFSLNIHPVEEDDIAMYFCQQSRKVPWTFGGGTKLEIKRGGGGSGGGGSGGGGSQVQLKESGPGLVAPSQSLSITCTVSGFSLTGYGVNWVRQPPGKGLEWLGMIWGDGSTDYNSALKSRLSITKDNSKSQVFLKMNSLQTDDTARYYCARDGYSNFHYYVMDYWGQGTSVTVSS
notes: as for B3
B9: 2H7-sss-hIgG P238S/P331S-H4-2e12 VHVL (bispecific antibody)
chain: QIVLSQSPAILSASPGEKVTMTCRASSSVSYMHWYQQKPGSSPKPWIYAPSNLASGVPARFSGSGSGTSYSLTISRVEAEDAATYYCQQWSFNPPTFGAGTKLELKDGGGSGGGGSGGGGSSQAYLQQSGAESVRPGASVKMSCKASGYTFTSYNMHWVKQTPRQGLEWIGAIYPGNGDTSYNQKFKGKATLTVDKSSSTAYMQLSSLTSEDSAVYFCARVVYYSNSYWYFDVWGTGTTVTVSEPKSSDKTHTSPPSPAPELLGGSSVFLFPPKPKDTLMISRTPEVTCVVVDVSHEDPEVKFNWYVDGVEVHNAKTKPREEQYNSTYRVVSVLTVLHQDWLNGKEYKCKVSNKALPASIEKTISKAKGQPREPQVYTLPPSRDELTKNQVSLTCLVKGFYPSDIAVEWESNGQPENNYKTTPPVLDSDGSFFLYSKLTVDKSRWQQGNVFSCSVMHEALHNHYTQKSLSLSPGKGGGGSGGGGSGNSQVQLKESGPGLVAPSQSLSITCTVSGFSLTGYGVNWVRQPPGKGLEWLGMIWGDGSTDYNSALKSRLSITKDNSKSQVFLKMNSLQTDDTARYYCARDGYSNFHYYVMDYWGQGTSVTVSSGGGGSGGGGSGGGGSGGGGSDIVLTQSPASLAVSLGQRATISCRASESVEYYVTSLMQWYQQKPGQPPKLLISAASNVESGVPARFSGSGSGTDFSLNIHPVEEDDIAMYFCQQSRKVPWTFGGGTKLEIKR
notes: Assembled from modules as m11; also called 2H7-sss-hIgG-H4-2e12 HL
B10: 2H7-sss-hIgG P238S/P331S-H5-2e12 VHVL (bispecific antibody)
chain: QIVLSQSPAILSASPGEKVTMTCRASSSVSYMHWYQQKPGSSPKPWIYAPSNLASGVPARFSGSGSGTSYSLTISRVEAEDAATYYCQQWSFNPPTFGAGTKLELKDGGGSGGGGSGGGGSSQAYLQQSGAESVRPGASVKMSCKASGYTFTSYNMHWVKQTPRQGLEWIGAIYPGNGDTSYNQKFKGKATLTVDKSSSTAYMQLSSLTSEDSAVYFCARVVYYSNSYWYFDVWGTGTTVTVSEPKSSDKTHTSPPSPAPELLGGSSVFLFPPKPKDTLMISRTPEVTCVVVDVSHEDPEVKFNWYVDGVEVHNAKTKPREEQYNSTYRVVSVLTVLHQDWLNGKEYKCKVSNKALPASIEKTISKAKGQPREPQVYTLPPSRDELTKNQVSLTCLVKGFYPSDIAVEWESNGQPENNYKTTPPVLDSDGSFFLYSKLTVDKSRWQQGNVFSCSVMHEALHNHYTQKSLSLSPGKNYGGGGSGGGGSGNSQVQLKESGPGLVAPSQSLSITCTVSGFSLTGYGVNWVRQPPGKGLEWLGMIWGDGSTDYNSALKSRLSITKDNSKSQVFLKMNSLQTDDTARYYCARDGYSNFHYYVMDYWGQGTSVTVSSGGGGSGGGGSGGGGSGGGGSDIVLTQSPASLAVSLGQRATISCRASESVEYYVTSLMQWYQQKPGQPPKLLISAASNVESGVPARFSGSGSGTDFSLNIHPVEEDDIAMYFCQQSRKVPWTFGGGTKLEIKR
notes: Assembled from modules as m11; also called 2H7-sss-hIgG-H5-2e12 HL

target: T1, CD20 (human, UniProt P11836 1-297); assay: flow cytometry on WIL2-S cells (CD20), protein A purified protein at 0.72 ug/ml, FITC goat anti-human IgG
T1 construct: whole, on cells; 2H7 is called murine anti-human CD20; also called CD20 presented on WIL-2S cells; CD20 on Ramos, BJAB, SU-DHL-6 and DoHH2 B cells
T1 sequence (looked up): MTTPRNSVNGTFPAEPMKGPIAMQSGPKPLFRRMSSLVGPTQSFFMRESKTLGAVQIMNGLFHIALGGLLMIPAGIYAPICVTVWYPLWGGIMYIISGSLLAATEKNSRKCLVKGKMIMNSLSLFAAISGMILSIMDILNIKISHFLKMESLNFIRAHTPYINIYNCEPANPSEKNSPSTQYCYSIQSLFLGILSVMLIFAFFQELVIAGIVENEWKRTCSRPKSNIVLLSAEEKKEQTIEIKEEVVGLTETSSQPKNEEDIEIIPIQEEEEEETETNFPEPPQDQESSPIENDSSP
Procedure: “L1-L6” refers to the 2H7-sss-hIgG-Lx-2e12 molecules where […] represents the L1-L6 linkers and the 2e12 V regions in the orientation of VL-VH. All the molecules were tested at a concentration of 0.72 μg/ml, and the binding detected using FITC conjugated goat anti-human IgG at 1:100.

Binding result, binds:
B1
B2
B3
B4
B5
B6
B7
B8
B9
B10
